Reference: patent EP4388012A1 (dated 2024)
Where two headings read alike, the source gives them in different places.

Tests used:
[1] = target: T1, soluble HLA-E-VL9 complex (HLA-E*01:03 heavy chain refolded with b2M and synthetic VL9 peptide) (human)
[2] = target: T1, soluble HLA-E-VL9 complex (HLA-E*01:03 …); assay: SPR, antibody immobilized on CM5 chip, soluble HLA-E-VL9 flowed, 1:1 model

Binder	Kd [1] [µM]	Kd [2] [µM]
3H4, murine HLA-E-VL9-specific IgM monoclonal antibody (antibody, V domains shown, also called mAb 3H4; 3H4 IgM) VH: EVQLQESGPELVKPGASVKIPCKASGYTFTDYNMDWVKQSHGKSLEWIGDINPNNGGTIYNQKFKGKATLTVDKSSSTAYMELRSLTSEDTAVYYCARPDYYGSSYGWYFDVWGTGTTVTVSS VL: DIVITQSPSSMYASLGERVTITCKASQDINSYLSWFQQKPGKSPKTLIYRANRLVDGVPSRFSGSGSGQDYSLTISSLEYEDMGIYYCLQYDEFPLTFGAGTKLELK	8.1	
3H4 as a recombinant human IgG1 (unoptimized, wild-type 3H4 on a human IgG1 backbone, 3H4 Gwt) (antibody, V domains shown, also called 3H4 IgG; wild-type 3H4 IgG) VH: EVQLQESGPELVKPGASVKIPCKASGYTFTDYNMDWVKQSHGKSLEWIGDINPNNGGTIYNQKFKGKATLTVDKSSSTAYMELRSLTSEDTAVYYCARPDYYGSSYGWYFDVWGTGTTVTVSS VL: DIVITQSPSSMYASLGERVTITCKASQDINSYLSWFQQKPGKSPKTLIYRANRLVDGVPSRFSGSGSGQDYSLTISSLEYEDMGIYYCLQYDEFPLTFGAGTKLELK		49.8
